Patent US9062100B2, “Anti-human TROP-2 antibody having anti-tumor activity in vivo” (LIVTECH, INC., dated 2015)
Where no end group is shown, it is not given here.

Key:
human TROP-2 (hTROP-2) [1] = molecular target: T1, human TROP-2 (hTROP-2) (human); experiment: FACS on PK-59 cells
T1 chain: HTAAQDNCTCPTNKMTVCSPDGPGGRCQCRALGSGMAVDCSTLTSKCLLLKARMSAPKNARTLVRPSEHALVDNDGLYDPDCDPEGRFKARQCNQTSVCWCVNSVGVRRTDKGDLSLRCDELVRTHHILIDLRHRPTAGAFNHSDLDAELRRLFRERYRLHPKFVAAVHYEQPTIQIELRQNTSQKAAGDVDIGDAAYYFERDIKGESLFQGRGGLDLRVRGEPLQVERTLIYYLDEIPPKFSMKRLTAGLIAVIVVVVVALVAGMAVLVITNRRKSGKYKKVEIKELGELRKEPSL

human TROP-2 (hTROP-2) [2] = molecular target: T1, human TROP-2 (hTROP-2); experiment: FACS on BxPC-3 cells
[3] = molecular target: T2, recombinant protein of the extracellular region of hTROP-2 (human); experiment: ELISA of free antibody after equilibration with antigen in solution
T2 sequence: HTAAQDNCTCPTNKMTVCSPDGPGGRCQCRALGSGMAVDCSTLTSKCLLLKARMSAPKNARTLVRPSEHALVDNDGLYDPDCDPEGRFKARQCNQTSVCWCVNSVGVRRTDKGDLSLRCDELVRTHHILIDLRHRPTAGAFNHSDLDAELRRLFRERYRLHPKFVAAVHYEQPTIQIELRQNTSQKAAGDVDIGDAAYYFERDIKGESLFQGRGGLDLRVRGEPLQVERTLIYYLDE

Table 8 peptide No. 17 = molecular target: T3, Table 8 peptide No. 17 (human, not fully specified); experiment: PEPSCAN CLIPS peptide ELISA
T3 peptide: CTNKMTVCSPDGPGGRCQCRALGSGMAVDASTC

Table 8 peptide No. 18 = molecular target: T4, Table 8 peptide No. 18 (human, not fully specified; cysteine pairing not given here); experiment: PEPSCAN CLIPS peptide ELISA
T4 peptide: TVCSPDGPGGRCQCR

Table 8 peptide No. 6 = molecular target: T5, Table 8 peptide No. 6 (human, not fully specified); experiment: PEPSCAN CLIPS peptide ELISA
T5 peptide: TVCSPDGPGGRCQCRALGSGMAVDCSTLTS

Table 8 peptide No. 15 = molecular target: T6, Table 8 peptide No. 15 (human, not fully specified); experiment: PEPSCAN CLIPS peptide ELISA
T6 peptide: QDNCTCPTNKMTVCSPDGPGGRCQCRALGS

Table 8 peptide No. 2 = molecular target: T7, Table 8 peptide No. 2 (human, not fully specified); experiment: PEPSCAN CLIPS peptide ELISA
T7 peptide: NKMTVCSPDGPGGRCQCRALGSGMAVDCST

Table 8 peptide No. 1 = molecular target: T8, Table 8 peptide No. 1 (human, not fully specified); experiment: PEPSCAN CLIPS peptide ELISA
T8 peptide: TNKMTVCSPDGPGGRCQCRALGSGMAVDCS

Table 8 peptide No. 5 = molecular target: T9, Table 8 peptide No. 5 (human, not fully specified); experiment: PEPSCAN CLIPS peptide ELISA
T9 peptide: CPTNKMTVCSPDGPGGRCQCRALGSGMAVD

Table 8 peptide No. 10 = molecular target: T10, Table 8 peptide No. 10 (human, not fully specified); experiment: PEPSCAN CLIPS peptide ELISA
T10 peptide: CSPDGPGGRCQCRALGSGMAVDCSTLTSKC

Table 8 peptide No. 20 = molecular target: T11, Table 8 peptide No. 20 (human, not fully specified); experiment: PEPSCAN CLIPS peptide ELISA
T11 peptide: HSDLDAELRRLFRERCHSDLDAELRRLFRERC

Table 8 peptide No. 14 = molecular target: T12, Table 8 peptide No. 14 (human, not fully specified); experiment: PEPSCAN CLIPS peptide ELISA
T12 peptide: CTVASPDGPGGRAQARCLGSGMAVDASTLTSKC

Table 8 peptide No. 19 = molecular target: T13, Table 8 peptide No. 19 (human, not fully specified); experiment: PEPSCAN CLIPS peptide ELISA
T13 peptide: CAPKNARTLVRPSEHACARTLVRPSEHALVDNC

Table 8 peptide No. 16 = molecular target: T14, Table 8 peptide No. 16 (human, not fully specified); experiment: PEPSCAN CLIPS peptide ELISA
T14 peptide: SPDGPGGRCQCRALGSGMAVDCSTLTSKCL

Table 8 peptide No. 13 = molecular target: T15, Table 8 peptide No. 13 (human, not fully specified); experiment: PEPSCAN CLIPS peptide ELISA
T15 peptide: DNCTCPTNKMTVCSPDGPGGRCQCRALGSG

Table 8 peptide No. 4 = molecular target: T16, Table 8 peptide No. 4 (human, not fully specified); experiment: PEPSCAN CLIPS peptide ELISA
T16 peptide: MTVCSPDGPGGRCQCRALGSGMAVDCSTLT

Table 8 peptide No. 3 = molecular target: T17, Table 8 peptide No. 3 (human, not fully specified); experiment: PEPSCAN CLIPS peptide ELISA
T17 peptide: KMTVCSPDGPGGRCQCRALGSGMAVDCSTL

Table 8 peptide No. 8 = molecular target: T18, Table 8 peptide No. 8 (human, not fully specified); experiment: PEPSCAN CLIPS peptide ELISA
T18 peptide: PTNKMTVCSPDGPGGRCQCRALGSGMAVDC

Table 8 peptide No. 7 = molecular target: T19, Table 8 peptide No. 7 (human, not fully specified); experiment: PEPSCAN CLIPS peptide ELISA
T19 peptide: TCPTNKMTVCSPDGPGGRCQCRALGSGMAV

Table 8 peptide No. 9 = molecular target: T20, Table 8 peptide No. 9 (human, not fully specified); experiment: PEPSCAN CLIPS peptide ELISA
T20 peptide: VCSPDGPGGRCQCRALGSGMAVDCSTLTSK

B1: anti-hTROP-2 monoclonal antibody K5-107 (antibody, V domains shown)
VH: QVQLQQPGSELVRPGASVKLSCKASGYTFTSYWMHWVKQRHGQGLEWIGNIYPGGGYTNYDEKFKSKGTLTVDTSSSTAYMHLSSLTSEDSAVYYCTRSSVFDYWGQGTTLTVSS
VL: DILLTQSPAILSVSPGERVSFSCRASQNIGTSIHWFQQRTNGSPRLLIKYASESISGIPSRFSGSGSGTDFTLSINSVESEDIADYYCQQSNSWPFTFGSGTKLEIK
Human TROP-2 (hTROP-2) [1]
  mean fluorescence intensity, times that with PE-labeled anti-mouse IgG only: 89 times
Human TROP-2 (hTROP-2) [2]
  mean fluorescence intensity, times that with PE-labeled anti-mouse IgG only: 90 times
[3]
  Kd: 4.7 pM
Table 8 peptide No. 17
  binding of K5-107: 380
Table 8 peptide No. 18
  binding of K5-107: 312
Table 8 peptide No. 6
  binding of K5-107: 2720
Table 8 peptide No. 15
  binding of K5-107: 874
Table 8 peptide No. 2
  binding of K5-107: 2760
Table 8 peptide No. 1
  binding of K5-107: 2760
Table 8 peptide No. 5
  binding of K5-107: 2720
Table 8 peptide No. 10
  binding of K5-107: 2660
Table 8 peptide No. 20
  binding of K5-107: 272
Table 8 peptide No. 14
  binding of K5-107: 1120
Table 8 peptide No. 19
  binding of K5-107: 284
Table 8 peptide No. 16
  binding of K5-107: 561
Table 8 peptide No. 13
  binding of K5-107: 1520
Table 8 peptide No. 4
  binding of K5-107: 2730
Table 8 peptide No. 3
  binding of K5-107: 2750
Table 8 peptide No. 8
  binding of K5-107: 2690
Table 8 peptide No. 7
  binding of K5-107: 2720
Table 8 peptide No. 9
  binding of K5-107: 2660
